The chains are these.
T1: MBP-M110-(K933-I1004) (chicken, UniProt Q90623 933-1004, digoxigenin label when used as probe)
T1 construct: also called digoxigenin-labelled MBP-M110-(K933-I1004); digoxigenin-labelled M110-(K933-I1004)
T1 sequence: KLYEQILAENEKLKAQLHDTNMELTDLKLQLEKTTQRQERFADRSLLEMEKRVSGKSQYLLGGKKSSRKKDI

B1: M110-(M1-E309), released from GST with thrombin (other)
chain: GSPGMKMADAKQKRNEQLKRWIGSETDLEPPVVKRQKTKVKFDDGAVFLAACSSGDTDEVLKLLHRGADINYANVDGLTALHQACIDDNVDMVKFLVENGANINQPDNEGWIPLHAAASCGYLDIAEFLIGQGAHVGAVNSEGDTPLDIAEEEAMEELLQNEVNRQGVDIEAARKEEERIMLRDARQWLNSGHISDVRHAKSGGTALHVAAAKGYTEVLKLLIQAGYDVNIKDYDGWTPLHAAAHWGKEEACRILVDNLCDMETVNKVGQTAFDVADEDILGYLEELQKKQNLLHSEKRDKKSPLIESTANMEA
notes: Rat aorta M110 fragment; free GST was left in the solution after cleavage; also called M100-(M1-E309)
B2: β isoform of PP1c released from rabbit skeletal muscle PP1G (enzyme, UniProt P62143 2-327, looked up)
chain: ADGELNVDSLITRLLEVRGCRPGKIVQMTEAEVRGLCIKSREIFLSQPILLELEAPLKICGDIHGQYTDLLRLFEYGGFPPEANYLFLGDYVDRGKQSLETICLLLAYKIKYPENFFLLRGNHECASINRIYGFYDECKRRFNIKLWKTFTDCFNCLPIAAIVDEKIFCCHGGLSPDLQSMEQIRRIMRPTDVPDTGLLCDLLWSDPDKDVQGWGENDRGVSFTFGADVVSKFLNRHDLDLICRAHQVVEDGYEFFAKRQLVTLFSAPNYCGEFDNAGGMMSVDETLMCSFQILKPSEKKAKYQYGGLNSGRPVTPPRTANPPKKR
notes: mature; also called PP1 catalytic subunit
B3: M110 subunit of chicken gizzard PP1M, full length (other)
chain: MKMADAKQKRNEQLKRWIGSETDLEPPVVKRKKTKVKFDDGAVFLAACSSGDTEEVLRLLERGADINYANVDGLTALHQACIDDNVDMVKFLVENGANINQPDNEGWIPLHAAASCGYLDIAEYLISQGAHVGAVNSEGDTPLDIAEEEAMEELLQNEVNRQGVDIEAARKEEERIMLRDARQWLNSGHINDVRHAKSGGTALHVAAAKGYTEVLKLLIQARYDVNIKDYDGWTPLHAAAHWGKEEACRILVENLCDMEAVNKVGQTAFDVADEDILGYLEELQKKQNLLHSEKREKKSPLIESTANLDNNQTQKTFKNKETLIMEQEKNASSIESLEHEKADEEEEGKKDESSCSSEEEEDDDSESEAETDKAKTLANANTTSTQSASMTAPSVAGGQGTPTSPLKKFPTSTTKVSPKEEERKDESPASWRLGLRKTGSYGALAEITASKEAQKEKDSAGVIRSASSPRLSSSLDNKEKEKDGKGTRLAYVAPTIPRRLASTSDIDEKENRDSSASSIRSGSSYARRKWEEDVKKNSLNEGPTSLNTSYQRSGSFGRRQDDLVSSNVPSTASTVTSSAGLQKTLPASANTTTKSTTGSTSAGVQSSTSNRLWAEDSTEKEKDSVPTAVTVPVAPSVVNAAATTTAMTTATSGTVSSTSEVRERRRSYLTPVRDEESESQRKARSRQARQSRRSTQGVTLTDLQEAEKTIGRSRSTRTREQENEEKEKEEKEKQDKEKQEEKKESETKDDDYRQRYSRTVEEPYHRYRPTSTSTSTSSTSSLSTSTSSLSSSSQLNRPNSLIGITSAYSRSGTKESEREGGKKEEEKEEDKSQPKSIRERRRPREKRRSTGVSFWTQDSDENEQEHQSDSEEGTNKKETQSDSLSRYDTGSLSVSSGDRYDSAQGRSGSQSYLEDRKPYCSRLEKEDSTDFKKLYEQILAENEKLKAQLHDTNMELTDLKLQLEKTTQRQERFADRSLLEMEKRVSGKSQYLLGGKKSSRKKDI
notes: Native subunit, met as the M110 band of blotted PP1M or inside PP1M; also called 110 kDa subunit; Ch1
B4: M21-(M1-E110), released from GST with thrombin (other)
chain: MSSLFTRSKEYTRSRKSQSDSPPSSPSPIAKTLRHERLSRLEAATTPATSDSYSDRASSRSSAYSRRENRLAALSSRAEEESNRDYKKLYESALSENQKLKSKLQEAQLEA
notes: not shown: the few vector residues left at the N terminus after thrombin cleavage of the modified pGEX fusion

Assay [1] deals with B2. Description: cell-based or functional assay.
The target of assay [2] is T2, myosin from chicken gizzard, dephosphorylated form (chicken, UniProt P10587 2-1979; P02612 2-172; P02607 2-151).
T2 construct: mature; Native protein pelleted by centrifugation; 1 µM in terms of heavy chains; also called myosin dimer
Description: not described in Example 1.

Assay [3] addresses T2, myosin from chicken gizzard, …. Description: co-sedimentation with myosin, phosphatase activity in pellet and supernatant. The procedure: (§1) The PP1 catalytic subunit (PP1c), PP1_M, or PP1_M lacking the $M21$ subunit, $PP1_M(\Delta M21)$, each at 30 nM, were incubated for 15 min at 0° C. with 1 μM myosin and centrifuged (see Methods of Example 3). […] The results shown are the average (±S.E.M.) for three separate experiments each assayed in duplicate.
(§2) Myosin binding assays. Myosin (0.5 mg/ml, 1 µM in terms of myosin heavy chains) in 10 mM Hepes pH 7.5, 50 mM KCl, 5 mM MgCl2, 0.1% (by vol) 2-mercaptoethanol, was mixed with PP1_M, M$21$ subunit, or fragments of the M$110$ and M$21$ subunits, at the concentrations indicated in figure legends. After incubation for 15 min at 0° C., the solutions were centrifuged for 2 min at 13,000×g, the supernatants removed, and the pellets washed twice in 10 mM Hepes pH 7.5, 50 mM KCl, 5 mM MgCl2, 0.1% (by vol) 2-mercaptoethanol before resuspension in 50 mM Tris-HCl pH 7.5, 0.1 mM EGTA, 0.03% (by mass) Brij 35, 0.6 M NaCl, 0.1% (by vol) 2-mercaptoethanol. Aliquots of the supernatant, the resuspended pellet and the suspension before centrifugation were either assayed for myosin P-light chain phosphatase activity or denatured in SDS and analysed by SDS/polyacrylamide gel electrophoresis.

Assay [4] has the same target. Kind of assay: co-sedimentation with myosin (as PP1M lacking M21). Here is the method: as §1, §2
For a further assay, the target named is T1, MBP-M110-(K933-I1004). Description: Far Western, blot probed with digoxigenin-labelled MBP-M110-(K933-I1004). The procedure:
A) GST-$M21$ 5 μg (track 1), $M21$ 5 μg (track 2), $M21$-(M1-L146) 5 μg (track 3), $M21$-(M1-E110) 20 μg (track 4) and $M21$-(E110-K186) 5 μg (track 5) were run on 16.5% polyacrylamide gels and stained with Coomassie Blue. The marker proteins ovalbumin (43 kDa) and carbonic anhydrase (29 kDa) are indicated. B) GST-$M21$ 0.5 μg (track 1), $M21$ 0.5 μg (track 2), $M21$-M1-L146) 0.5 μg (track 3), $M21$-(M1-E110) 5 μg (track 4) and $M21$-(E110-K186) 5 μg (track 5) were electrophoresed as in A) and after transfer to nitrocellulose the blots were probed with digoxigenin-labelled MBP-$M110$-(K933-I1004) (0.2 μg/Ml). C) same as B) except that, after electrophoresis, the proteins were transferred to nitrocellulose and probed with digoxigenin-labelled $M21$ subunit (0.2 μg/ml).

T2 sequence (P10587 2-1979, chain 1 of 3): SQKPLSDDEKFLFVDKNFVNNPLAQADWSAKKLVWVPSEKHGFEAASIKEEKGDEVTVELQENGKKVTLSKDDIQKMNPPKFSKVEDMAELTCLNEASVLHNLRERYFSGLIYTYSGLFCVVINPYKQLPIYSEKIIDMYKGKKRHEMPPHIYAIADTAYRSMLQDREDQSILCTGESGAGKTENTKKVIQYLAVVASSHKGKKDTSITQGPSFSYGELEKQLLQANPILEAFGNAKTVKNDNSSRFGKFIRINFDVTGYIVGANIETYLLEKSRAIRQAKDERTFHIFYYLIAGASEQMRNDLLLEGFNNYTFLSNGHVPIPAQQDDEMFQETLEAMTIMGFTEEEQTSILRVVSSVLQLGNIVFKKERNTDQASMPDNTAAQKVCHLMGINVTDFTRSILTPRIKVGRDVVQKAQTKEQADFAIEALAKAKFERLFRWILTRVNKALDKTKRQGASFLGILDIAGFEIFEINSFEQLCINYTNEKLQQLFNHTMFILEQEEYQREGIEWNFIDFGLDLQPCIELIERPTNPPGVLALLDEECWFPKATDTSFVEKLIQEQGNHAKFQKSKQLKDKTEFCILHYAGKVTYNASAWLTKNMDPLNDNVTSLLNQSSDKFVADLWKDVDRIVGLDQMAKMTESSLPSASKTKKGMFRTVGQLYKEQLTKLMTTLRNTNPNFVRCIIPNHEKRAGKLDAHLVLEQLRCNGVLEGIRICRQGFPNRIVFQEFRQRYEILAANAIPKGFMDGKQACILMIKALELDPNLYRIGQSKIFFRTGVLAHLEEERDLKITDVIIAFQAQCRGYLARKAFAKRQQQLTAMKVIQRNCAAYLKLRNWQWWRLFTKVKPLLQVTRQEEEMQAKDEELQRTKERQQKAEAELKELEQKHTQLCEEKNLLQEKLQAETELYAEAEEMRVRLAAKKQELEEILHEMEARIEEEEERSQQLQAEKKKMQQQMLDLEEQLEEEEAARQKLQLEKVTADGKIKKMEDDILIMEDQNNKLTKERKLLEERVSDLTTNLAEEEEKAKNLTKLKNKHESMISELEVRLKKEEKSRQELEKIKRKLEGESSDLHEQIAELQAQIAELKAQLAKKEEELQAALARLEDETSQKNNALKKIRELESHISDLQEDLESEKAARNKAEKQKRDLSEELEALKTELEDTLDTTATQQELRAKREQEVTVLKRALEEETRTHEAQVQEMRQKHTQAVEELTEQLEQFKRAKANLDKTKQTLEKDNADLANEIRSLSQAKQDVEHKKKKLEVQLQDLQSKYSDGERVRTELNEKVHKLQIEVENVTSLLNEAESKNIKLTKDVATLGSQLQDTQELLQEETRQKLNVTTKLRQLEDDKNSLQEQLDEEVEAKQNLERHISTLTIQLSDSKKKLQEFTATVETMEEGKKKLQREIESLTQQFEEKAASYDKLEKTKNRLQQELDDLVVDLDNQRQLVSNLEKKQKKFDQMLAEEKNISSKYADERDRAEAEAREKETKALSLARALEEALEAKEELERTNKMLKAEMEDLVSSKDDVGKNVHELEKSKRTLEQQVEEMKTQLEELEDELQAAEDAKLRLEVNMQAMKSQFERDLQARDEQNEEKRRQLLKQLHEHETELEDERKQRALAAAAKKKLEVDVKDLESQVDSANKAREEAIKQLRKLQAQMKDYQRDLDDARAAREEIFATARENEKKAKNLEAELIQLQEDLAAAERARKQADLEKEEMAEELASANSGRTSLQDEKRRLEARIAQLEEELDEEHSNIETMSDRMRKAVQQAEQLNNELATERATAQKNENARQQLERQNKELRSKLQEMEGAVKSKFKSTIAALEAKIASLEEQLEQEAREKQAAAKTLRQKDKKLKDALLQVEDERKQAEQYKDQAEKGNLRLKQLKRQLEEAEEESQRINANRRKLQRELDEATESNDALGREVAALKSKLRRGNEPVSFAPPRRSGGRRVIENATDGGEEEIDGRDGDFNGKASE
T2 sequence (P02612 2-172, chain 2 of 3): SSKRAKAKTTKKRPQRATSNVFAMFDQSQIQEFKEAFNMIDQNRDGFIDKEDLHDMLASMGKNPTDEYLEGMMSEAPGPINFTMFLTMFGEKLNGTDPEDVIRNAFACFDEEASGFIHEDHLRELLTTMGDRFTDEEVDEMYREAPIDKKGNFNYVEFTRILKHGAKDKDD
T2 sequence (P02607 2-151, chain 3 of 3): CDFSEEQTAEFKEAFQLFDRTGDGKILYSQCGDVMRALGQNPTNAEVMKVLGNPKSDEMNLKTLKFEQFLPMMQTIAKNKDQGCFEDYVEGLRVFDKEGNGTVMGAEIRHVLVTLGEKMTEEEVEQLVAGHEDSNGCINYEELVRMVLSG

As to B1, the “MLC20 phosphatase activity of PP1c” value in assay [1] is around 3 fold. Besides, the binding result in assay [2] was “no binding”.

In the case of B2, the binding result in assay [3] was “no binding (tested: 30 nM with 1 µM myosin)”.

Consider B3, for which the binding result in assay [4] is reported as “binds”.

In the case of B4, the binding result with MBP-M110-(K933-I1004) is reported as “no binding (tested: 0.2 µg/ml probe)”.

Values taken from US6884600 (MEDICAL RESEARCH COUNCIL LONDON, dated 2005).
